Source: the supplement of paper PMC9732359
± gives the uncertainty stated by the source.

Test: protein stability index of a GFP-peptide fusion (yeast GPS) (PSI 1-4); higher = more stable; sorted into four equal gates, so the index is relative within each strain
How it was run: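 The protein stability index combines read frequencies across sorting gates, each weighted by its gate number and then summed. To obtain those frequencies, a pooled yeast library of GFP fusions to tiled 17-residue yeast protein peptides, on a plasmid also expressing Cherry, was grown to mid-log phase in leucine-free medium. The cells were sorted into four equal gates by GFP/Cherry ratio before plasmid amplification by PCR and Illumina sequencing.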

Row | Sequence | protein stability index (doa10∆) | protein stability index (pdr5∆) | protein stability index (san1∆) | protein stability index (ubr1∆)
1 | PLLSNYASKINRAEGPE [RGR1] | 2.88 ± 0.12 | 2.8 ± 0.1 | 2.87 ± 0.12 | 2.55 ± 0.082
2 | LHYIPKYNRYEKRHKNV [RPS11A] | 2.06 ± 0.063 | 1.74 ± 0.054 | 1.78 ± 0.089 | 2.26 ± 0.05
3 | EIGITQQRIVSAYEASM [RRP4] | 3.04 ± 0.098 | 2.98 ± 0.081 | 2.75 ± 0.12 | 2.85 ± 0.065
4 | DVEDDDKETQLKKRAVS [POP7] | 2.85 ± 0.18 | 2.94 ± 0.096 | 2.41 ± 0.16 | 2.5 ± 0.21
5 | VISNLVPKLESSRTKFW [YJL039C/NUP192] | 2.36 ± 0.26 | 2.6 ± 0.13 | 2.48 ± 0.28 | 2.69 ± 0.2
6 | SNASQMGNTGSGGYDNA [RPB3] | 3.43 ± 0.27 | 3.32 ± 0.17 | 3.52 ± 0.2 | 2.5 ± 0.15
7 | GARFDDGAGGDNEVQRT [RPT1] | 3.58 ± 0.2 | 3.4 ± 0.26 | 3.47 ± 0.24 | 3.52 ± 0.083
8 | TNHVLEVFSVLGIEAAR [RPO31] | 2.21 ± 0.19 | 2.4 ± 0.11 | 2.77 ± 0.076 | 3.02 ± 0.24
9 | EGDASPFTDITVEGISK [RPB2] | 3.17 ± 0.14 | 2.97 ± 0.17 | 3.08 ± 0.092 | 3.07 ± 0.21
10 | FELFDNKTAHLSIPGKS [SNU114] | 2.11 ± 0.04 | 2.11 ± 0.055 | 2.25 ± 0.058 | 2.1 ± 0.031
11 | MMMQQQLKNVQLDSYLV [MED2] | 2.21 ± 0.037 | 2.45 ± 0.061 | 1.69 ± 0.079 | 2.17 ± 0.032
12 | INCNKETIENVKLQMIK [ECM29] | 3.21 ± 0.097 | 3.03 ± 0.16 | 2.93 ± 0.089 | 3.4 ± 0.13
13 | IPMDFIRNVLVTVDQYV [SSN2] | 1.13 ± 0.047 | 1.58 ± 0.056 | 1.33 ± 0.091 | 1.63 ± 0.06
14 | TSPQYIPSPLSSTKPPG [NUT1] | 2.51 ± 0.039 | 2.42 ± 0.034 | 2.4 ± 0.048 | 2.45 ± 0.029
15 | NLLHSYMEKGTQLDDLQ [YML103C/NUP188] | 2.63 ± 0.056 | 2.49 ± 0.053 | 2.35 ± 0.052 | 2.32 ± 0.034
16 | SGGWGVPRKFKHFIQGG [RPL7A] |  | 3.23 ± 0.18 |  | 
17 | VPYVLMGQIATFIYFAY [COB] | 1.38 ± 0.1 | 1.23 ± 0.1 | 1.17 ± 0.16 | 1.28 ± 0.078
18 | PVLDNPFTNEAHMWPRV [POP3] | 3.26 ± 0.12 | 2.94 ± 0.1 | 2.99 ± 0.11 | 3.27 ± 0.06
19 | RVNNPNVSLIKIEGVAT [RPL33A] | 2.54 ± 0.077 | 2.62 ± 0.062 | 2.38 ± 0.077 | 2.49 ± 0.048
20 | SMNKELIAIVSKLLQTT [NUT1] | 1.88 ± 0.057 | 1.79 ± 0.096 | 2.28 ± 0.14 | 1.4 ± 0.083
21 | EINSVGNPGLPQYQYQR [ITC1] | 2.66 ± 0.11 | 2.59 ± 0.077 | 2.92 ± 0.057 | 3.16 ± 0.067
22 | VEFKLPKELVPSHEKLK [CDC53] | 2.37 ± 0.054 | 2.24 ± 0.045 | 2.24 ± 0.071 | 2.08 ± 0.045
23 | VAALRFTAGARAKIVKA [RPL18A] | 1.31 ± 0.089 | 1.4 ± 0.069 | 1.24 ± 0.2 | 1.18 ± 0.1
24 | NVNKKALGQDTEKMEEQ [MED11] | 2.88 ± 0.059 | 2.94 ± 0.055 | 2.88 ± 0.034 | 3.04 ± 0.05
25 | NNRSVSMQTIAETIILS [SRB5] | 2.02 ± 0.052 | 1.91 ± 0.068 | 1.56 ± 0.07 | 1.84 ± 0.031
26 | SKYYPGVIIKVEESGEH [SNU114] | 1.96 ± 0.061 | 2.08 ± 0.077 | 2.28 ± 0.08 | 2.42 ± 0.073
27 | SATVKTSDLLGSHLSET [ECM29] | 2.67 ± 0.071 | 2.98 ± 0.085 | 2.94 ± 0.095 | 2.86 ± 0.076

Row | Sequence | protein stability index (doa10∆) | protein stability index (pdr5∆) | protein stability index (san1∆) | protein stability index (ubr1∆)
28 | DDTAANNGDKDHLKLVS [YIL149C/MLP2] | 3.25 ± 0.12 | 3.35 ± 0.11 | 2.81 ± 0.12 | 3.2 ± 0.087
29 | EEQKIVKKVVKEQTEAA [RPL34A] |  | 3.23 ± 0.16 | 3.27 ± 0.061 | 3.13 ± 0.15
30 | IRSSRSRGIVIGSGAMS [RPP1] | 2.63 ± 0.085 | 2.77 ± 0.09 | 2.63 ± 0.091 | 2.46 ± 0.073
31 | GVYSDDELLSQLDLCKL [SRP68] | 3.09 ± 0.063 | 3.21 ± 0.053 | 3.23 ± 0.043 | 3.15 ± 0.068
32 | IIVKILYYRPHINKKSQ [GRR1] | 1.66 ± 0.096 | 2.63 ± 0.11 | 1.23 ± 0.18 | 2.51 ± 0.11
33 | TQGGNVNLDNTAVGKAA [RPT5] | 3.11 ± 0.053 | 3.28 ± 0.052 | 3.277 ± 0.032 | 3.17 ± 0.038
34 | TAIAHSIREQVHMYHKS [SNF5] | 1.89 ± 0.044 | 1.92 ± 0.047 | 2.23 ± 0.069 | 2.12 ± 0.044
35 | GRPQRKMMSFQANPTEE [RPB5] |  | 3.2 ± 0.17 | 3.44 ± 0.094 | 3.53 ± 0.19
36 | THPHAADGSSYMEQGNN [SKI6] | 3.05 ± 0.073 | 3.2 ± 0.063 | 3.02 ± 0.052 | 3.07 ± 0.047
37 | IKNFKSLLLSSSFKEDC [SSN2] | 2.82 ± 0.11 | 2.98 ± 0.094 | 2.96 ± 0.086 | 3.11 ± 0.086
38 | QESSSLRLLEVTDDDRL [POP8] | 2.1 ± 0.068 | 2.08 ± 0.078 | 2.5 ± 0.12 | 1.65 ± 0.068
39 | WKEVLAHNPELERYVKR [RPO31] | 3.6 ± 0.11 | 3.85 ± 0.25 | 3.38 ± 0.1 | 3.45 ± 0.099
40 | VFYAPNVKNYSTTQEIL [RPC34] | 2.4 ± 0.1 | 1.97 ± 0.071 | 3.02 ± 0.082 | 2.06 ± 0.048
41 | RGYTCQFVDMVLPNTAL [FAS1] | 1.75 ± 0.075 | 1.88 ± 0.048 | 1.32 ± 0.089 | 1.53 ± 0.05
42 | VASADYESQTFSSKNEW [PRP8] | 2.83 ± 0.098 | 3.4 ± 0.19 | 2.85 ± 0.18 | 2.89 ± 0.13
43 | SYHNGNLKGRPYTGWVD [FAS2] | 2.07 ± 0.096 | 3.13 ± 0.1 | 3.08 ± 0.1 | 2.83 ± 0.094
44 | APAVELHGNAKKAAEEA [FAS2] | 3.42 ± 0.12 | 3.11 ± 0.14 | 3.1 ± 0.12 | 3.3 ± 0.15
45 | IIDRGRNVLSASLDGTI [RPN14] | 3.1 ± 0.093 | 2.52 ± 0.065 | 2.97 ± 0.055 | 2.77 ± 0.044
46 | NGTISKTGKKNKVAKKN [SRP14] | 3.51 ± 0.16 | 3.45 ± 0.19 | 3.09 ± 0.13 | 3.17 ± 0.076
47 | VNAPLPTPFKVDDNVDF [RPN2] | 2.91 ± 0.077 | 2.75 ± 0.051 | 2.74 ± 0.08 | 2.96 ± 0.086
48 | KVFSLDPQYLVDDLRPE [ASC1] | 2.94 ± 0.16 | 2.84 ± 0.1 | 3.04 ± 0.09 | 3.15 ± 0.078
49 | EKINRMIIFLKNYDATD [CSI1] | 2.52 ± 0.045 | 2.34 ± 0.044 | 2.38 ± 0.046 | 2.26 ± 0.028
50 | IYAKYGAKGSTLIVVPF [FAS2] | 2.4 ± 0.072 | 2.72 ± 0.073 | 2.34 ± 0.11 | 2.13 ± 0.05
51 | DRKKDKNVKHSGNIQLD [RPL12A] | 3.31 ± 0.12 | 3.46 ± 0.17 | 3.38 ± 0.073 | 3.18 ± 0.096
52 | ATFTSIELTSYESIATY [RPN7] | 1.75 ± 0.038 | 1.9 ± 0.04 | 1.77 ± 0.046 | 1.77 ± 0.025
53 | PVKLDENSANSTVASAL [SIR4] | 2.9 ± 0.13 | 3.09 ± 0.081 | 2.76 ± 0.09 | 2.9 ± 0.074
54 | ARLDGHDFLFNTIIRDG [RPN14] | 2.83 ± 0.091 | 2.95 ± 0.06 | 3.32 ± 0.056 | 2.81 ± 0.044
